{"source": "paper PMC3597701", "target": "origin recognition complex (ORC) (S. cerevisiae) (UniProt P54784)", "test": "cross-linking", "data": [{"substance": "MCM2–7 (mini-chromosome maintenance proteins 2–7) with a single HA tag at the N-terminus of Mcm3, P29469;P24279;P30665;P29496;P53091;P38132", "values": [{"measurement": "stoichiometry N (MCM2–7 hexamer per ORC)", "result": 1}]}]}
